T1: hNAP-2 complexed to heparin (human, UniProt P02775 59-128)
T1 construct: mature; Complexed to heparin in the ELISA; NAP-2 is its C-terminal product
T1 sequence (looked up): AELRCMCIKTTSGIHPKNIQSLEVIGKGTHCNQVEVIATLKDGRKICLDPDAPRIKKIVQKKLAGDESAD

T2: hIL-8 complexed to heparin (human, UniProt P10145 21-99)
T2 construct: mature; Complexed to heparin in the ELISA
T2 sequence (looked up): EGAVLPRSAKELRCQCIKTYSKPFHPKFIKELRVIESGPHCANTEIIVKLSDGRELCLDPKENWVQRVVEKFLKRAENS

T3: hPF4/heparin complex (human, UniProt P02776 32-101)
T3 construct: hPF4 (10 micrograms per milliliter) complexed with heparin (0.2 Units/milliliter in the standard ELISA); heparin is a glycosaminoglycan and not a protein chain; also called P/H
T3 sequence (looked up): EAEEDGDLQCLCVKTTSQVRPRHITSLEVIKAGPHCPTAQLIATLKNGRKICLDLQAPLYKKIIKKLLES

T4: murine PF4 complexed to heparin (murine, UniProt Q9Z126 30-105)
T4 construct: mature; Complexed to heparin in the ELISA; also called mPF4; mouse PF4
T4 sequence (looked up): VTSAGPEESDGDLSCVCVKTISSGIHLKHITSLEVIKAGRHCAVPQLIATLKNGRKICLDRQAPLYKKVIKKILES


Experiments:
[1] = target: platelet Fc-gamma RIIA (human) (UniProt P12318); experiment: cell-based or functional assay
[2] = target: T1, hNAP-2 complexed to heparin; experiment: ELISA, chemokine complexed to heparin
Protocol: (§1) The binding of antibody to either PF4, PF4 variants, PF4 bound to various GAGs or other chemokines complexed to heparin, was measured using an ELISA-based method as previously described (Arepally et al., 1995, Am. J. Clin. Pathol. 104:648). Briefly, to screen hybridoma culture supematants, 96-well microtiter plates were coated overnight at room temperature with 50 micoliters per well of phosphate buffered saline (PBS) containing PF4 (final concentration 10 micrograms per milliliter) in the presence or absence of heparin (0.2 Units/milliliter). The plates were then washed three times with TBS/0.01% Tween-20, blocked with 10% fetal calf serum (FCS) (200 microliters per well) in PBS for 2 hours at room temperature, and washed once more. Culture supernatant was added (50 microliters per well) for 1 hour at room temperature. Non-bound antibody was removed by washing, and 50 microliters per well of alkaline-phosphatase conjugated goat anti-mouse IgG, diluted 1:1000 in 10% FCS/PBS was added for 1 hour at room temperature. […] The binding of KKO to PF4 and related chemokines and the binding of KKO to PF4 bound to various GAGs, was measured in the same manner, except that an incubation volume of 100 microliters per well was used.

[3] = target: T2, hIL-8 complexed to heparin; experiment: ELISA, chemokine complexed to heparin
Protocol: as §1

[4] = target: T3, hPF4/heparin complex; experiment: ELISA, wells coated with hPF4/heparin or hPF4 alone
Protocol: as §1

[5] = target: T4, murine PF4 complexed to heparin; experiment: ELISA, mPF4 complexed to heparin
Protocol: as §1

[6] = target: T3, hPF4/heparin complex; experiment: ELISA, KKO at concentrations less than 0.14 micrograms per milliliter
Protocol: as §1, with “temperature.” for “temperature. Non-bound antibody was removed by washing, and 50 microliters per well of alkaline-phosphatase conjugated goat anti-mouse IgG, diluted 1:1000 in 10% FCS/PBS was added for 1 hour at room temperature.”
(§2) The relative specificity of KKO was determined by adding various dilutions of KKO to wells coated with hPF4/heparin complex or hPF4 alone. […] At concentrations less than 0.14 micrograms per milliliter, the ratio of binding of KKO to PF4/heparin complex vs. binding to PF4 alone as determined by A₄₀₅ was greater than 400. […]

[7] = target: T3, hPF4/heparin complex; experiment: ELISA, wells coated with hPF4/heparin
Protocol: as §1, with “temperature.” for “temperature. Non-bound antibody was removed by washing, and 50 microliters per well of alkaline-phosphatase conjugated goat anti-mouse IgG, diluted 1:1000 in 10% FCS/PBS was added for 1 hour at room temperature.”
as §2

platelet Fc-gamma RIIA (human), sequence (P12318 34-317, form in doubt): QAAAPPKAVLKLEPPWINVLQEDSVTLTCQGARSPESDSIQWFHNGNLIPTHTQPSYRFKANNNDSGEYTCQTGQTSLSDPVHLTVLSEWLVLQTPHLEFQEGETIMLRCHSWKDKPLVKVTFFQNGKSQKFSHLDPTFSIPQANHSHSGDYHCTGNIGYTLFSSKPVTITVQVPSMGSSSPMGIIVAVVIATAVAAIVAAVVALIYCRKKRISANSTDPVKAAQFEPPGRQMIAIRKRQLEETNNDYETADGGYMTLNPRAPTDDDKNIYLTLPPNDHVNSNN

| 14C-serotonin release induced by KKO [1] [% release] | binding result [2] | binding result [3] | A405 ratio to hPF4/heparin complex versus hPF4 alone [4] [ratio] | binding result [5] | ratio of binding to PF4/heparin complex vs. binding to PF4 alone (A405) [6] [ratio] | EC50 [7] [mg/L] | Molecule |
| --- | --- | --- | --- | --- | --- | --- | --- |
| < 5 | – | – | – | – | – | – | Fc-gamma RIIA blocking antibody mAb IV.3 |
| – | no binding | no binding | > 30 | no binding | > 400 | 0.036 | murine monoclonal antibody KKO (antibody, V domains shown, Murine IgG2b kappa purified from ascites) VH: EVQLQQSGAELVKPGASVKLSCKASGYTFTNYFIYWVKQRPGQGLEWIGEINPRNGDTDFNEKFESRATLTVDKSSSTAYMQLSSLTSEDSAIYYCTRSPYGNNYGFTYWGQGTLVTVSA VL: DIQMIQSQKFMSTSVGDRVTVTCKASQNVGTNVAWYQQKPGQSPNALIYSASYRYSGVPDRFTGSGSGTDFTLTITNVQSEDLADYFCQQYNSYPLTFGTGTKLEIK |
